{"source": "patent US20260217779", "proteins": {"B1": {"name": "human dipeptidyl peptidase IV (human DPPIV, hDPPIV) (Biolegend, 764102) (protein)", "chain": "NKGTDDATADSRKTYTLTDYLKNTYRLKLYSLRWISDHEYLYKQENNILVFNAEYGNSSVFLENSTFDEFGHSINDYSISPDGQFILLEYNYVKQWRHSYTASYDIYDLNKRQLITEERIPNNTQWVTWSPVGHKLAYVWNNDIYVKIEPNLPSYRITWTGKEDIIYNGITDWVYEEEVFSAYSALWWSPNGTFLAYAQFNDTEVPLIEYSFYSDESLQYPKTVRVPYPKAGAVNPTVKFFVVNTDSLSSVTNATSIQITAPASMLIGDHYLCDVTWATQERISLQWLRRIQNYSVMDICDYDESSGRWNCLVARQHIEMSTTGWVGRFRPSEPHFTLDGNSFYKIISNEEGYRHICYFQIDKKDCTFITKGTWEVIGIEALTSDYLYYISNEYKGMPGGRNLYKIQLSDYTKVTCLSCELNPERCQYYSVSFSKEAKYYQLRCSGPGLPLYTLHSSVNDKGLRVLEDNSALDKMLQNVQMPSKKLDFIILNETKFWYQMILPPHFDKSKKYPLLLDVYAGPCSQKADTVFRLNWATYLASTENIIVASFDGRGSGYQGDKIMHAINRRLGTFEVEDQIEAARQFSKMGFVDNKRIAIWGWSYGGYVTSMVLGSGSGVFKCGIAVAPVSRWEYYDSVYTERYMGLPTPEDNLDHYRNSTVMSRAENFKQVEYLLIHGTADDNVHFQQSAQISKALVDVGVDFQAMWYTDEDHGIASSTAHQHIYTHMSHFIKQCFSLP"}}, "key": {"[1]": {"molecular_target": "T1, hCXCL11-G1T4k.one//VHn-G1T4h.one.H435R", "T1 chain 1": "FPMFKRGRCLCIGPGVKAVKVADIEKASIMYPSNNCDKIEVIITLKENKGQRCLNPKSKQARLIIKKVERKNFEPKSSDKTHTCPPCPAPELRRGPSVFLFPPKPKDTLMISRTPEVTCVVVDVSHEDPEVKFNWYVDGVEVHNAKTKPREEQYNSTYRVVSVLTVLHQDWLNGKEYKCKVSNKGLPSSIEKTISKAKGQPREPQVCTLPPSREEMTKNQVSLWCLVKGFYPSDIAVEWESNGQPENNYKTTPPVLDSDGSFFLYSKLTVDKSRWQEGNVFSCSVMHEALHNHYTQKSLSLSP", "T1 chain 2": "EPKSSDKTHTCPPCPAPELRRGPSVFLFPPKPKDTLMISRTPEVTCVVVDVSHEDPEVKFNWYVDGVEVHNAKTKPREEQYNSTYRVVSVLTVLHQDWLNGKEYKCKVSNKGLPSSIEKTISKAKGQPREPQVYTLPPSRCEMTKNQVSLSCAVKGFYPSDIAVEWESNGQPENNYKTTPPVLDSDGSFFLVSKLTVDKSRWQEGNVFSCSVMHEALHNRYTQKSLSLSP"}, "[2]": {"molecular_target": "T2, hCXCL11.0021-G1T4k.one//VHn-G1T4h.one.H435R", "T2 chain 1": "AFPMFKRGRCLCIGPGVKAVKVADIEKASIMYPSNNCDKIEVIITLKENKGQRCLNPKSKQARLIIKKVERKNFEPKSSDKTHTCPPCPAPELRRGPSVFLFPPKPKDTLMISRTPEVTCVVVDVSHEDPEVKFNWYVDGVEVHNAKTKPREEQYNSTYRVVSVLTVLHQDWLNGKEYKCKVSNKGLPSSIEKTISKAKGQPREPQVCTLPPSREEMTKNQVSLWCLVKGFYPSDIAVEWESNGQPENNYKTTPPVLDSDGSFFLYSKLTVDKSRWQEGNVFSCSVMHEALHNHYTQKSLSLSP", "T2 chain 2": "T1 chain 2"}, "[3]": {"molecular_target": "T3, hCXCL11.0031-G1T4k.one//VHn-G1T4h.one.H435R", "T3 chain 1": "T2 chain 1 with A1N", "T3 chain 2": "T1 chain 2"}, "[4]": {"molecular_target": "T4, hITIP-G1T4k.one//VHn-G1T4h.one.H435R", "T4 chain 1": "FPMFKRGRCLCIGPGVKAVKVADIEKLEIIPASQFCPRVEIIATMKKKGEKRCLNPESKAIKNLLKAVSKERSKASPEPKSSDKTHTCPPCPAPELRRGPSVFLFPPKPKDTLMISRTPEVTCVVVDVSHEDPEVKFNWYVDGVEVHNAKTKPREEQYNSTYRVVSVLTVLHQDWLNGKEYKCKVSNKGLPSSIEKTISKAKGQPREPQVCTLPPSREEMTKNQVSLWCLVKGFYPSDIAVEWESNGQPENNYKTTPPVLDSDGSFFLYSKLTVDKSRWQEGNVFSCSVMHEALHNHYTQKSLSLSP", "T4 chain 2": "T1 chain 2"}, "[5]": {"molecular_target": "T5, hITIP0021-G1T4k.one//VHn-G1T4h.one.H435R", "T5 chain 1": "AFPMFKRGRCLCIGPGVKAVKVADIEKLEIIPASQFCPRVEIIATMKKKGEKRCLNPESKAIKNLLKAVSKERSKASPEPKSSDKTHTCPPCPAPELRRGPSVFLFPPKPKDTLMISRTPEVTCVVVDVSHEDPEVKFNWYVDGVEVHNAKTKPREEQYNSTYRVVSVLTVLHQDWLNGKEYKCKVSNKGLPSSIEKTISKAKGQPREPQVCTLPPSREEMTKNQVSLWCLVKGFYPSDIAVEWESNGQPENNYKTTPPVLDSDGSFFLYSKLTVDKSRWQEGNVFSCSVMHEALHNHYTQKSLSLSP", "T5 chain 2": "T1 chain 2"}, "[6]": {"molecular_target": "T6, hITIP0022-G1T4k.one//VHn-G1T4h.one.H435R", "T6 chain 1": "T5 chain 1 with A1D", "T6 chain 2": "T1 chain 2"}, "[7]": {"molecular_target": "T7, hITIP0031-G1T4k.one//VHn-G1T4h.one.H435R", "T7 chain 1": "T5 chain 1 with A1N", "T7 chain 2": "T1 chain 2"}, "[8]": {"molecular_target": "T8, hITIP0033-G1T4k.one//VHn-G1T4h.one.H435R", "T8 chain 1": "T5 chain 1 with A1Q", "T8 chain 2": "T1 chain 2"}}, "note": "Positions count from the first letter of the chain named."}
{"protein": "B1", "values": [{"measurement": "cleavage by hDPPIV (LC/MS mass)", "setting": "[1]", "result": "DPPIV treatment reduced each of the masses"}, {"measurement": "cleavage by hDPPIV (LC/MS mass)", "setting": "[2]", "result": "showed no mass change suggestive of peptide bond cleavage by hDPPIV treatment"}, {"measurement": "cleavage by hDPPIV (LC/MS mass)", "setting": "[3]", "result": "showed no mass change suggestive of peptide bond cleavage by hDPPIV treatment"}, {"measurement": "cleavage by hDPPIV (LC/MS mass)", "setting": "[4]", "result": "DPPIV treatment reduced each of the masses"}, {"measurement": "cleavage by hDPPIV (LC/MS mass)", "setting": "[5]", "result": "showed no mass change suggestive of peptide bond cleavage by hDPPIV treatment"}, {"measurement": "cleavage by hDPPIV (LC/MS mass)", "setting": "[6]", "result": "showed no mass change suggestive of peptide bond cleavage by hDPPIV treatment"}, {"measurement": "cleavage by hDPPIV (LC/MS mass)", "setting": "[7]", "result": "showed no mass change suggestive of peptide bond cleavage by hDPPIV treatment"}, {"measurement": "cleavage by hDPPIV (LC/MS mass)", "setting": "[8]", "result": "showed no mass change suggestive of peptide bond cleavage by hDPPIV treatment"}]}
